Earlier results as cited in article PMC4209448 (Scientific Reports, 2014).

Conditions: C57BL/6 mice

Aβ(1–40): amyloid-β(1–40) peptide whose CSF-to-blood efflux half-time is quoted from the literature
Half-time of efflux from the CSF to blood: 34.63 ± 3.6 min
